Source: patent US20240016902A1

Key:
TUBA1C [1] = target: TUBA1C (UniProt Q9BQE3); assay: Flag-IP from HeLa cell lysate, mass spectrometry of eluate
WDR77 [2] = target: WDR77 (UniProt Q9BQA1); assay: as above
FLNA [3] = target: FLNA (UniProt P21333); assay: as above
[4] = target: SPTAN1 (accession Q13813) (Homo sapiens (Human)) (UniProt Q13813); assay: as above
SPTBN1 [5] = target: SPTBN1 (UniProt Q01082); assay: as above
TUBB [6] = target: TUBB (UniProt P07437); assay: as above
HSPA1A = HSPA1A (UniProt P0DMV8); assay: as above
PRMT5 [7] = target: PRMT5 (UniProt O14744); assay: as above
Chain of PRMT5 (O14744 2-637 limits assumed): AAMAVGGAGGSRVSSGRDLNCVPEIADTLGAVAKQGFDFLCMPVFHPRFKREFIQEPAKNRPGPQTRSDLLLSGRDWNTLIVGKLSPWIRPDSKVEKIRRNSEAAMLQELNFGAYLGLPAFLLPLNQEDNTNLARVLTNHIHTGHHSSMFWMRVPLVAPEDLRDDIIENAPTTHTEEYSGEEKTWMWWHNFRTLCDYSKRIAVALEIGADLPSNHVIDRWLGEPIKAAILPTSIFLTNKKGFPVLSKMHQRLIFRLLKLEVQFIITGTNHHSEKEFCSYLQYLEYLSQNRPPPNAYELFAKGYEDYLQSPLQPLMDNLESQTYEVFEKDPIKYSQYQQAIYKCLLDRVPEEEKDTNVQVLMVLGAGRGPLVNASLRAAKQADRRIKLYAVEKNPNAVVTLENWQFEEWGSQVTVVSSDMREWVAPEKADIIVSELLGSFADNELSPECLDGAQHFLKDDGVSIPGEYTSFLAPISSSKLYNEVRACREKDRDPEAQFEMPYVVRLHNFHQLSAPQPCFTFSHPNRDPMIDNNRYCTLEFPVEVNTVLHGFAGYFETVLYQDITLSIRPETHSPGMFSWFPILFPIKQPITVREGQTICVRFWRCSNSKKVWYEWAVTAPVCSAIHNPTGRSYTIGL

TUBB4B [8] = target: TUBB4B (UniProt P68371); assay: as above
TUBA1A = TUBA1A (UniProt Q71U36); assay: as above
EIF4B [9] = target: EIF4B (UniProt P23588); assay: as above
WDR77 [10] = target: WDR77 (UniProt Q9BQA1); assay: Flag-IP from HepG2 cell lysate, mass spectrometry of eluate
FLNA [11] = target: FLNA (UniProt P21333); assay: as above
HSPA8 [12] = target: HSPA8 (UniProt P11142); assay: as above
Chain of HSPA8 (P11142 2-646 limits assumed): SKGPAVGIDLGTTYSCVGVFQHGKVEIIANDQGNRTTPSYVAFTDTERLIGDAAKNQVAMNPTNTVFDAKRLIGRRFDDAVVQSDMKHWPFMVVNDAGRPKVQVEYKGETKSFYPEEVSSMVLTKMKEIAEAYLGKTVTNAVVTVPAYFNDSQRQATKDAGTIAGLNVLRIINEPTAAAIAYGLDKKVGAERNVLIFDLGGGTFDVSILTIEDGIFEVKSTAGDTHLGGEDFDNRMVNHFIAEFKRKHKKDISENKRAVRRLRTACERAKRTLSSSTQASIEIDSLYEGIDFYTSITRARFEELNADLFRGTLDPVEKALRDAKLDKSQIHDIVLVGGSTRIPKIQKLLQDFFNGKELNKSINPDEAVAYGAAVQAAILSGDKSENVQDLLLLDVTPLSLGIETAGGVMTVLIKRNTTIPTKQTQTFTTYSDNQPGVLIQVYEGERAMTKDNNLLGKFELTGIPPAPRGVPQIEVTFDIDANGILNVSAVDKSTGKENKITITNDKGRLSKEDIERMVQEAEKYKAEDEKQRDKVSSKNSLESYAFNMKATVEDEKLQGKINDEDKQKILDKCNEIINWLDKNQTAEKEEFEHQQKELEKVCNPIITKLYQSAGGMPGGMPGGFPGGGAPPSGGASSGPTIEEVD

SPTBN1 [13] = target: SPTBN1 (UniProt Q01082); assay: as above
VIL1 = VIL1 (UniProt P09327); assay: as above
DBN1 = DBN1 (UniProt Q16643); assay: as above
POTEE = POTEE (UniProt Q6S8J3); assay: as above
[14] = target: SPTAN1 (accession Q13813-2) (UniProt Q13813); assay: as above
PRMT5 [15] = target: PRMT5 (UniProt O14744); assay: as above
EIF4B [16] = target: EIF4B (UniProt P23588); assay: as above
HSPA8 [17] = target: HSPA8 (UniProt P11142); assay: Flag-IP from HeLa cell lysate, mass spectrometry of eluate
KRT1 = KRT1 (UniProt P04264); assay: as above
[18] = target: SPTAN1 (accession Q13813-2) (UniProt Q13813); assay: as above
TUBA1B [19] = target: TUBA1B (UniProt P68363); assay: as above
Chain of TUBA1B (P68363 whole entry): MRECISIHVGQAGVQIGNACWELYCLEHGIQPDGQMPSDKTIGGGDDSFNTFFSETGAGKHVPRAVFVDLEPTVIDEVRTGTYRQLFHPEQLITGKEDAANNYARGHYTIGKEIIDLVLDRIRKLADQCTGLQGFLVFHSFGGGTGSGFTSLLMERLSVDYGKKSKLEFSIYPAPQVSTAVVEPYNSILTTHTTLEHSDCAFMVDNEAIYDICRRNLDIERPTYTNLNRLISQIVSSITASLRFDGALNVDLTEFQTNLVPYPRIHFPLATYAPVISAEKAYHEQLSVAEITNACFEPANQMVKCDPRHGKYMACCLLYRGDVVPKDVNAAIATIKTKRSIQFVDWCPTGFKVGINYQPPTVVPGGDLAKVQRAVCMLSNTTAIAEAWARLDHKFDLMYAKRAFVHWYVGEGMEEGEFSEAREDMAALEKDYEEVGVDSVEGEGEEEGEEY

TUBA1C [20] = target: TUBA1C (UniProt Q9BQE3); assay: Flag-IP from HepG2 cell lysate, mass spectrometry of eluate
TUBB [21] = target: TUBB (UniProt P07437); assay: as above
TUBA1B [22] = target: TUBA1B (UniProt P68363); assay: as above
TUBB4B [23] = target: TUBB4B (UniProt P68371); assay: as above
[24] = target: SPTAN1 (accession Q13813-3) (UniProt Q13813); assay: as above

Chain of SPTBN1 (Q01082 2-2364 limits assumed): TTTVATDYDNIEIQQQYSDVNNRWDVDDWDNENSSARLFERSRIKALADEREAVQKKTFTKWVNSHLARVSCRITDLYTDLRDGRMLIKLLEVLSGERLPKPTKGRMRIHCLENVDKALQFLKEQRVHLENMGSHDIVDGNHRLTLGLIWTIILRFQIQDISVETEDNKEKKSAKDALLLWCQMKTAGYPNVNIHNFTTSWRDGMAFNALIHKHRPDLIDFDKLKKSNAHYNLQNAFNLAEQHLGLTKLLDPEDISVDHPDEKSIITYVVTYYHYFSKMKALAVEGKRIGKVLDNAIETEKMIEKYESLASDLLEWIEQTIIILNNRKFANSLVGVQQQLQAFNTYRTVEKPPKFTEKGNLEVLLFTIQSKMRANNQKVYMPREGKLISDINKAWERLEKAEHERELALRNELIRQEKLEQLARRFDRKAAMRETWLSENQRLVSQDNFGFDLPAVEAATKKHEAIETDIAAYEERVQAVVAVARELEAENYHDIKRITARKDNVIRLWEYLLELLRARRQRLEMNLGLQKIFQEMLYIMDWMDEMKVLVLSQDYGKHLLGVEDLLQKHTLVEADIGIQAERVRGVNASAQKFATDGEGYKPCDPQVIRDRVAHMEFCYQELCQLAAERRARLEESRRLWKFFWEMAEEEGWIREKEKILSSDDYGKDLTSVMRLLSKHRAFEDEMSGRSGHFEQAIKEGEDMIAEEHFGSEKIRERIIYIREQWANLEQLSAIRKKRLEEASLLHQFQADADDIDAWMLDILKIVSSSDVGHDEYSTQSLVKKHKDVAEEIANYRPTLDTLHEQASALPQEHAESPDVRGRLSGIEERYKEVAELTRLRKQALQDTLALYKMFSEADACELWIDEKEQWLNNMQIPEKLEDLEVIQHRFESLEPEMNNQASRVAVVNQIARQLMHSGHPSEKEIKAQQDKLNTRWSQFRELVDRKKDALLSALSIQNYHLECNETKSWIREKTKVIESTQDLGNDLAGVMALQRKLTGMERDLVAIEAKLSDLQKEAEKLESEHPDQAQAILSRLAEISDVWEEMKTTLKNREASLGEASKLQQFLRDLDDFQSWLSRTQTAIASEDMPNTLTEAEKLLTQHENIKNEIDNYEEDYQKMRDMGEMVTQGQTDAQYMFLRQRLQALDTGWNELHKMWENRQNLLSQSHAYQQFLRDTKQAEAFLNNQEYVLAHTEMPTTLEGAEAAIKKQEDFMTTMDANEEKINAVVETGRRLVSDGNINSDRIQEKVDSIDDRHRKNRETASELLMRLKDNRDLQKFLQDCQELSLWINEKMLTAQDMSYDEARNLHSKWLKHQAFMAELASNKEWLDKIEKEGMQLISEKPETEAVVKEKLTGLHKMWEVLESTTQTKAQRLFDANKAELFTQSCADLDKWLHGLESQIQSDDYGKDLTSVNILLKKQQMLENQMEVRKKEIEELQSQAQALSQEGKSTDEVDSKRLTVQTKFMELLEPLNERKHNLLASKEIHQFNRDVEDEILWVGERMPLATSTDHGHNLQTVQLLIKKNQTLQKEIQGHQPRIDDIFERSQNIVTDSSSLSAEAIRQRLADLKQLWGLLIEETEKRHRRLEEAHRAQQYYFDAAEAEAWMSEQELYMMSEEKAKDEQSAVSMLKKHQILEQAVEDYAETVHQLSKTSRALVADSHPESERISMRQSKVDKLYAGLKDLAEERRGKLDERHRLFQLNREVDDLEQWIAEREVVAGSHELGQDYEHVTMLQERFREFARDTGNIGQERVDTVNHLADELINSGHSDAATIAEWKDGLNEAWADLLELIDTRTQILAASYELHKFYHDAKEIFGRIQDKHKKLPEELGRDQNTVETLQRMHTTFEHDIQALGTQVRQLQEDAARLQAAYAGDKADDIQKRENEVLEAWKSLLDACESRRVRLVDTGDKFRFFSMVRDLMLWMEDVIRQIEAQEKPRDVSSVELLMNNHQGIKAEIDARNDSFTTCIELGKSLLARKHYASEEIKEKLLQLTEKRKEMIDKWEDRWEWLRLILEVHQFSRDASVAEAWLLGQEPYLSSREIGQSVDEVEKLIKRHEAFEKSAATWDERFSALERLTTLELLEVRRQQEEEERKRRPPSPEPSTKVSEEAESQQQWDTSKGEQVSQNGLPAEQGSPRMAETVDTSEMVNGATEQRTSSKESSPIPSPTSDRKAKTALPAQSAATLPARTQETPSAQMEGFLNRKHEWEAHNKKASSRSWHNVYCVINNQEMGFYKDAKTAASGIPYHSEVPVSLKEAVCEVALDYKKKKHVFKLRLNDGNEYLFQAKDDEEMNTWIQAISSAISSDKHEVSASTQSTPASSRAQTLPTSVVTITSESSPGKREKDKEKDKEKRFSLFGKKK
Chain of TUBB (P07437 whole entry): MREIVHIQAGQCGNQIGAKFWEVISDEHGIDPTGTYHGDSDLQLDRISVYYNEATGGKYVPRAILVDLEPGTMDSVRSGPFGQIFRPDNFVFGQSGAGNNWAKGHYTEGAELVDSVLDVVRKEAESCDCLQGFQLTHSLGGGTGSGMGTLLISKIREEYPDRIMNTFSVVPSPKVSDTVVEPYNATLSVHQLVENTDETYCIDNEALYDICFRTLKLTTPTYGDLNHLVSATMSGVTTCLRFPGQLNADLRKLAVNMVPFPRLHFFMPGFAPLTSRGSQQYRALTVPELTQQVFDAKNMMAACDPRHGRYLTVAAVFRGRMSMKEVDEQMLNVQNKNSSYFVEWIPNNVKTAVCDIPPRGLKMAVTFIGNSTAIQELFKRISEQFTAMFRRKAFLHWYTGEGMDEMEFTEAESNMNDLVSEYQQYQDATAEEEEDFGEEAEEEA
Chain of WDR77 (Q9BQA1 whole entry): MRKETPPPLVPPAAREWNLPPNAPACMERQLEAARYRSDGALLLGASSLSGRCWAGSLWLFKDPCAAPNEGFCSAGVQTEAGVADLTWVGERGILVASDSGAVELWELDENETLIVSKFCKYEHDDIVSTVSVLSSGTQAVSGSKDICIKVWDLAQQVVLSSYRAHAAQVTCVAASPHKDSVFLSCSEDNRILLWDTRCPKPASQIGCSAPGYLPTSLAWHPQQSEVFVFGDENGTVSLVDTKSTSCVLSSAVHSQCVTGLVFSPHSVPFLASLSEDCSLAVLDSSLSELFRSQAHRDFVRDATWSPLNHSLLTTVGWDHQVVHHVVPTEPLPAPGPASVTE

Flag-AtRDR1 (Arabidopsis thaliana RNA-dependent RNA polymerase 1 with Flag tag) (from UniProt Q9LQV2 1-1107) (enzyme)
Coverage (%) (TUBA1C [1]): 31% | Length of peptide (TUBA1C [1]): 10 | Coverage (%) (WDR77 [2]): 44% | Length of peptide (WDR77 [2]): 10 | Coverage (%) (FLNA [3]): 20% | Length of peptide (FLNA [3]): 36 | Coverage (%) [4]: 16% | Length of peptide [4]: 29 | Coverage (%) (SPTBN1 [5]): 12% | Coverage (%) (TUBB [6]): 29% | Length of peptide (TUBB [6]): 10 | Coverage (%) (HSPA1A): 17% | Length of peptide (HSPA1A): 10 | Coverage (%) (PRMT5 [7]): 29% | Length of peptide (PRMT5 [7]): 12 | Coverage (%) (TUBB4B [8]): 25% | Length of peptide (TUBB4B [8]): 9 | Coverage (%) (TUBA1A): 36% | Coverage (%) (EIF4B [9]): 33% | Length of peptide (EIF4B [9]): 20 | Coverage (%) (WDR77 [10]): 66% | Coverage (%) (FLNA [11]): 27% | Length of peptide (FLNA [11]): 38 | Coverage (%) (HSPA8 [12]): 56% | Length of peptide (HSPA8 [12]): 27 | Coverage (%) (SPTBN1 [13]): 45% | Length of peptide (SPTBN1 [13]): 72 | Coverage (%) (VIL1): 46% | Length of peptide (VIL1): 26 | Coverage (%) (DBN1): 36% | Coverage (%) (POTEE): 9% | Length of peptide (POTEE): 7 | Coverage (%) [14]: 44% | Length of peptide [14]: 83 | Coverage (%) (PRMT5 [15]): 59% | Length of peptide (PRMT5 [15]): 31 | Coverage (%) (EIF4B [16]): 37% | Length of peptide (EIF4B [16]): 17

Flag-OsRDR1 (rice, Oryza sativa, RNA-dependent RNA polymerase 1 with Flag tag) (from UniProt Q0DXS3 1-740) (enzyme)
Coverage (%) (TUBA1C [1]): 35% | Length of peptide (TUBA1C [1]): 11 | Coverage (%) (FLNA [3]): 12% | Length of peptide (FLNA [3]): 20 | Coverage (%) (HSPA8 [17]): 36% | Length of peptide (HSPA8 [17]): 17 | Coverage (%) (SPTBN1 [5]): 10% | Length of peptide (SPTBN1 [5]): 16 | Coverage (%) (KRT1): 32% | Length of peptide (KRT1): 14 | Coverage (%) (TUBB [6]): 42% | Length of peptide (TUBB [6]): 15 | Coverage (%) [18]: 9% | Length of peptide [18]: 16 | Coverage (%) (HSPA1A): 26% | Length of peptide (HSPA1A): 13 | Coverage (%) (PRMT5 [7]): 37% | Length of peptide (PRMT5 [7]): 15 | Coverage (%) (TUBA1B [19]): 40% | Length of peptide (TUBA1B [19]): 12 | Coverage (%) (TUBB4B [8]): 38% | Length of peptide (TUBB4B [8]): 14 | Coverage (%) (EIF4B [9]): 26% | Length of peptide (EIF4B [9]): 9 | Coverage (%) (TUBA1C [20]): 55% | Length of peptide (TUBA1C [20]): 17 | Coverage (%) (WDR77 [10]): 64% | Length of peptide (WDR77 [10]): 15 | Coverage (%) (FLNA [11]): 32% | Length of peptide (FLNA [11]): 50 | Coverage (%) (HSPA8 [12]): 68% | Length of peptide (HSPA8 [12]): 34 | Coverage (%) (SPTBN1 [13]): 48% | Length of peptide (SPTBN1 [13]): 81 | Coverage (%) (POTEE): 11% | Length of peptide (POTEE): 9 | Coverage (%) (TUBB [21]): 66% | Length of peptide (TUBB [21]): 24 | Coverage (%) (PRMT5 [15]): 61% | Length of peptide (PRMT5 [15]): 31 | Coverage (%) (TUBA1B [22]): 62% | Length of peptide (TUBA1B [22]): 19 | Coverage (%) (TUBB4B [23]): 66% | Coverage (%) [24]: 47% | Length of peptide [24]: 85
